From patent publication US20210188980A1 (SHANGHAI EPIMAB BIOTHERAPEUTICS, published 2021)
Positions count from the first letter of the chain named. In names and notes the source's numbering stands.

Legend:
[1] = target: T1, recombinant human LAG-3-his protein (Novoprotein) (human, UniProt P18627 23-450); assay: BLI Octet, Ab on AHC sensor, huLAG-3-his; test group 3
T1 construct: Bought; also called huLAG-3; not shown: His tag
T1 sequence (looked up): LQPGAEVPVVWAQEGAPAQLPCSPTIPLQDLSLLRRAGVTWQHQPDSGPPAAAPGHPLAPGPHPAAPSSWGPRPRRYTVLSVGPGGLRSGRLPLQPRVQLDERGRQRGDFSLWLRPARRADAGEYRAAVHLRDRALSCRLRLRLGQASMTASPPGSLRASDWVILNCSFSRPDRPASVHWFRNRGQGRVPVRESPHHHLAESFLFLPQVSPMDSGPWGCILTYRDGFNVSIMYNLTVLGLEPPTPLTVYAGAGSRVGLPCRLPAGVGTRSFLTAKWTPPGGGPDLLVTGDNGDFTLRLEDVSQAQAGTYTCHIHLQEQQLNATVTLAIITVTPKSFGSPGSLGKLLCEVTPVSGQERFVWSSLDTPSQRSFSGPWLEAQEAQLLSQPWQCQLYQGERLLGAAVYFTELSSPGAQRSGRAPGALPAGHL
Method: (§1) All 18 humanized antibodies (Table 34) and a chimeric antibody having the parental murine VH and VL domains (mAb747c) were ranked by dissociation rate constant (koff). Briefly, antibodies were characterized for affinities and binding kinetics by Octet®RED96 biolayer interferometry (Pall ForteBio LLC). Antibodies were captured by Anti-hIgG Fc Capture (AHC) Biosensors (Pall) at a concentration of 100 nM for 30 seconds. Sensors were then dipped into running buffer (1× pH7.2 PBS, 0.05% Tween 20, 0.1% BSA) for 60 seconds to check baseline. Binding was measured by dipping sensors into a single concentration of recombinant human LAG-3-his protein (Novoprotein). Dissociation was followed by dipping sensors into running buffer for 1200 seconds. The association and dissociation curves were fitted to a 1:1 Langmuir binding model using FortéBio Data Analysis software (Pall). In each test group, the off-rates of antibodies were able to be compared with that of mAb747c. The off-rate ratios were calculated by the off-rate of antibody to that of mAb747c of its group and were compared all together. The lower the ratio was, the higher was the affinity of the antibody.

[2] = target: T1, recombinant human LAG-3-his protein …; assay: BLI Octet, Ab on AHC sensor, huLAG-3-his; test group 1
Method: as §1, with “9” for “18”, “25)” for “34)”, “Octet RED96” for “Octet®RED96”, “FortéBio” for “ForteBio”, “Anti-HIgG” for “Anti-hIgG”, “(Pall).” for “(Pall). In each test group, the off-rates of antibodies were able to be compared with that of mAb747c. The off-rate ratios were calculated by the off-rate of antibody to that of mAb747c of its group and were compared all together. The lower the ratio was, the higher was the affinity of the antibody.”
(§2) All 13 humanized antibodies (Table 39) and chimeric anti-LAG-3 antibody mAb747c having the parental murine VH and VL domains were ranked by dissociation rate constant (koff) in the same manner described in Example 9.1 supra. In each test group, the off-rates of antibodies were able to be compared with that of mAb747c. The off-rate ratios were calculated by the off-rate of antibody to that of mAb747c of its group and were compared all together. The lower the ratio was, the higher was the affinity of the antibody.

[3] = target: T1, recombinant human LAG-3-his protein …; assay: BLI Octet, Ab on AHC sensor, huLAG-3-his; test group 2
Method: as §1, with “9” for “18”, “25)” for “34)”, “Octet RED96” for “Octet®RED96”, “FortéBio” for “ForteBio”, “Anti-HIgG” for “Anti-hIgG”, “(Pall).” for “(Pall). In each test group, the off-rates of antibodies were able to be compared with that of mAb747c. The off-rate ratios were calculated by the off-rate of antibody to that of mAb747c of its group and were compared all together. The lower the ratio was, the higher was the affinity of the antibody.”
as §2

[4] = target: T1, recombinant human LAG-3-his protein …; assay: BLI Octet, FIT-Ig captured, antigen analyte
Cyno LAG-3-His = Cyno LAG-3-His (cynomolgus); assay: BLI Octet, FIT-Ig captured, antigen analyte
human PD-1-His protein = target: T2, human PD-1-His protein (human, UniProt Q15116 25-167, limits assumed); assay: BLI Octet, FIT-Ig captured, antigen analyte
T2 construct: also called huPD-1; not shown: His tag
T2 sequence (Q15116 25-167 limits assumed): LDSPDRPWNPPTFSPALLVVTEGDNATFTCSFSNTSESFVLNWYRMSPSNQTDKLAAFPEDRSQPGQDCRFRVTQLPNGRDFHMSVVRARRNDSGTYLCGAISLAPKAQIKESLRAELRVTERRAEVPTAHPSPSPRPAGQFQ

Cyno PD-1-His = Cyno PD-1-His (cynomolgus, UniProt B0LAJ3 25-170); assay: BLI Octet, FIT-Ig captured, antigen analyte
Sequence of Cyno PD-1-His (B0LAJ3 entry or part of it limits assumed): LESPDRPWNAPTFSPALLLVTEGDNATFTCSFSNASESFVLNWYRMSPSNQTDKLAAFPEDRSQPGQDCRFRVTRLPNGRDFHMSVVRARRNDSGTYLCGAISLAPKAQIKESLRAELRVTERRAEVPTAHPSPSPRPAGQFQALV

[5] = target: T1, recombinant human LAG-3-his protein …; assay: BLI Octet, Ab on AHC sensor, huLAG-3-his; test group 1; remark: listed apart in the source
Method: as §1, with “9” for “18”, “25)” for “34)”, “Octet RED96” for “Octet®RED96”, “FortéBio” for “ForteBio”, “Anti-HIgG” for “Anti-hIgG”, “(Pall).” for “(Pall). In each test group, the off-rates of antibodies were able to be compared with that of mAb747c. The off-rate ratios were calculated by the off-rate of antibody to that of mAb747c of its group and were compared all together. The lower the ratio was, the higher was the affinity of the antibody.”
The seven Fab clones were converted to full IgG proteins. Briefly, the VH and VL genes were produced synthetically and then cloned into vectors containing coding sequences for the human IgG1 and human kappa constant domains, respectively. The heavy chain and cognate light chain plasmids were co-transfected into HEK 293E cells, individually. After approximately six days of post-transfection cell culture, the supernatants were harvested and subjected to Protein A affinity chromatography. The affinity of purified antibodies was ranked by Octet® RED96 biolayer interferometry (see, Example 9.1, supra).

B1: HumAb747-55 (antibody, human IgG1, V domains shown)
VH: EVQLVQSGAEVKKPGATVKISCKVSDFNIKDDYMHWVQQAPGKGLEWIGWIVPENGNTEYASKFQGRVTITADTSTDTAYLELSSLRSEDTAVYYCTVYGDYWGQGTTVTVSS
VL: DIQMTQSPSSLSASVGDRVTITCRASQEISGYLSWLQQKPGGAIKRLIYAASTLDSGVPSRFSGSRSGSDYTLTISSLEPEDFADYYCLQYASYPLTFGQGTKLELK
notes: humanized mAb747; human IgG1/kappa constant domains
- koff [1]: 0.0119 s⁻¹
- off-rate ratio to that of mAb747c [1]: 972%

B2: HumAb747-56 (antibody, human IgG1, V domains shown)
VH: B1 VH with I20L, V24A
VL: B1 VL
notes: as for B1
- koff [1]: 0.00431 s⁻¹
- off-rate ratio to that of mAb747c [1]: 352%

B3: HumAb747-57 (antibody, human IgG1, V domains shown)
VH: B1 VH with I20L, K23T, V24A
VL: B1 VL
notes: as for B1
- koff [1]: 0.00411 s⁻¹
- off-rate ratio to that of mAb747c [1]: 335%

B4: HumAb747-58 (antibody, human IgG1, V domains shown)
VH: B1 VH with I20L, K23T, V24A, Q38K, V68A, D77N
VL: B1 VL
notes: as for B1
- koff [1]: 0.00405 s⁻¹
- off-rate ratio to that of mAb747c [1]: 331%

B5: HumAb747V-61 (antibody, human IgG1, V domains shown)
VH: EVQLVQSGAEVKKPGATVKLSCTASDFNIKDDYMHWVKQRPEQGLDWIGWIVPENANTEYASKFQGKATITADTSTNTAYLELSSLRSEDTAVYYCTVYGDYWGQGTTVTVSS
VL: B1 VL with E79Q
notes: human IgG1/kappa constant domains
- koff [2]: 0.000686 s⁻¹
- off-rate ratio to that of mAb747c [2]: 112%

B6: HumAb747V-62 (antibody, human IgG1, V domains shown)
VH: B5 VH with D26G, E54R, A56G, E59M
VL: B1 VL with S56L, E79Q
notes: engineered HumAb747-60 variant; human IgG1/kappa constant domains
- koff [2]: 0.00048 s⁻¹
- off-rate ratio to that of mAb747c [2]: 78%

B7: HumAb747V-63 (antibody, human IgG1, V domains shown)
VH: B5 VH with D26G, E54R, A56G, E59M
VL: B1 VL with T53A, E79Q
notes: as for B6
- koff [2]: 0.000522 s⁻¹
- off-rate ratio to that of mAb747c [2]: 85%

B8: HumAb747V-64 (antibody, human IgG1, V domains shown)
VH: B5 VH with D26G, E54R, A56G, E59M
VL: B1 VL with T53A, S56L, E79Q
notes: as for B6
- koff [2]: 0.00045 s⁻¹
- off-rate ratio to that of mAb747c [2]: 73%

B9: HumAb747V-65 (antibody, human IgG1, V domains shown)
VH: B5 VH with D26G, E54R, A56G, E59M
VL: B1 VL with E79Q
notes: as for B6
- koff [2]: 0.000292 s⁻¹
- off-rate ratio to that of mAb747c [2]: 47%

B10: HumAb747V-66 (antibody, human IgG1, V domains shown)
VH: B5 VH with D26G, A56G, E59V
VL: B1 VL with S56L, E79Q
notes: as for B6
- koff [2]: 0.000584 s⁻¹
- off-rate ratio to that of mAb747c [2]: 95%

B11: HumAb747V-68 (antibody, human IgG1, V domains shown)
VH: B5 VH with D26G, A56G, E59V
VL: B1 VL with T53A, S56L, E79Q
notes: as for B6
- koff [3]: 0.000295 s⁻¹
- off-rate ratio to that of mAb747c [3]: 41%

B12: HumAb747V-69 (antibody, human IgG1, V domains shown)
VH: B5 VH with D26G, A56G, E59V
VL: B1 VL with E79Q
notes: as for B6
- koff [3]: 0.000357 s⁻¹
- off-rate ratio to that of mAb747c [3]: 53%

B13: HumAb747V-70 (antibody, human IgG1, V domains shown)
VH: B5 VH with D26G, E54R, A56G, E59V
VL: B1 VL with S56L, E79Q
notes: as for B6
- koff [3]: 0.000273 s⁻¹
- off-rate ratio to that of mAb747c [3]: 40%

B14: HumAb747V-71 (antibody, human IgG1, V domains shown)
VH: B5 VH with D26G, E54R, A56G, E59V
VL: B1 VL with T53A, E79Q
notes: as for B6
- koff [3]: 0.000292 s⁻¹
- off-rate ratio to that of mAb747c [3]: 43%

B15: HumAb747V-72 (antibody, human IgG1, V domains shown)
VH: B5 VH with D26G, E54R, A56G, E59V
VL: B1 VL with T53A, S56L, E79Q
notes: as for B6
- koff [3]: 0.000247 s⁻¹
- off-rate ratio to that of mAb747c [3]: 37%

B16: FIT107-1-7b-3 (bispecific antibody, human IgG1, kappa, L234A L235A)
chain 1: not shown
chain 2: EVQLVQSGAEVKKPGATVKLSCTASGFNIKDDYMHWVKQRPEQGLDWIGWIVPRNANTVYASKFQGKATITADTSTNTAYLELSSLRSEDTAVYYCTVYGDYWGQGTTVTVSSASTKGPSVFPLAPSSKSTSGGTAALGCLVKDYFPEPVTVSWNSGALTSGVHTFPAVLQSSGLYSLSSVVTVPSSSLGTQTYICNVNHKPSNTKVDKKVEPKSC
chain 3: not shown
notes: FIT-Ig hexamer; outer anti-LAG-3 (HumAb747V-73 with G55A), inner anti-PD-1 (HumAb713-7)
- Kd [4]: 2.28 nM
- koff [4]: 0.000328 s⁻¹
- kon [4]: 144000 M⁻¹ s⁻¹
- Kd (Cyno LAG-3-His): 0.167 nM
- koff (Cyno LAG-3-His): 4.7e-05 s⁻¹
- kon (Cyno LAG-3-His): 281000 M⁻¹ s⁻¹
- Kd (human PD-1-His protein): 8.86 nM
- koff (human PD-1-His protein): 0.00103 s⁻¹
- kon (human PD-1-His protein): 116000 M⁻¹ s⁻¹
- Kd (Cyno PD-1-His): 3.71 nM
- koff (Cyno PD-1-His): 0.000919 s⁻¹
- kon (Cyno PD-1-His): 248000 M⁻¹ s⁻¹

B17: B3-69-IgG (antibody, V domains shown)
VH: EVQLVQSGAEVKKPGASVKVSCKASGFNIKDDYMHWVRQAPGQGLEWIGWIVPENGNTHYASKFQGRVTITADTSINTAYMELSRLRSDDTAVYYCTVYGDYWGQGTTVTVSS
VL: B1 VL with T22N, G41E, A43T, A50E, E79Q, D85T, Q100G, L104V, L106I
notes: as for B5
- koff [5]: 0.00359 s⁻¹
- off-rate ratio to that of mAb747c [5]: 239%

B18: FIT107-1-6a-2 (bispecific antibody, human IgG1, kappa, L234A L235A)
chain 1: not shown
chain 2: EVQLVESGGGLVQPGGSLRLSCAASGFTFSFYTMSWVRQAPGKGLEWVATISGGGRDTYYPDSVKGRFTISRDNAKNSLYLQMNSLRAEDTAVYYCAGQGGNYLFAYWGQGTLVTVSSASTKGPSVFPLAPSSKSTSGGTAALGCLVKDYFPEPVTVSWNSGALTSGVHTFPAVLQSSGLYSLSSVVTVPSSSLGTQTYICNVNHKPSNTKVDKKVEPKSC
chain 3: DIQMTQSPSSLSASVGDRVTITCRASQEISGYLSWLQQKPGGAIKRLIYAASALDLGVPSRFSGSRSGSDYTLTISSLQPEDFADYYCLQYASYPLTFGQGTKLELKRTVAAPSVFIFPPSDEQLKSGTASVVCLLNNFYPREAKVQWKVDNALQSGNSQESVTEQDSKDSTYSLSSTLTLSKADYEKHKVYACEVTHQGLSSPVTKSFNRGEC
notes: FIT-Ig hexamer; outer anti-PD-1 (HumAb709-8), inner anti-LAG-3 (HumAb747V-72 with G55A)
- Kd [4]: 1.02 nM
- koff [4]: 0.000117 s⁻¹
- kon [4]: 115000 M⁻¹ s⁻¹
- Kd (Cyno LAG-3-His): 0.428 nM
- koff (Cyno LAG-3-His): 8.17e-05 s⁻¹
- kon (Cyno LAG-3-His): 191000 M⁻¹ s⁻¹
- Kd (human PD-1-His protein): 1.28 nM
- koff (human PD-1-His protein): 0.000239 s⁻¹
- kon (human PD-1-His protein): 187000 M⁻¹ s⁻¹
- Kd (Cyno PD-1-His): 3.49 nM
- koff (Cyno PD-1-His): 0.00107 s⁻¹
- kon (Cyno PD-1-His): 306000 M⁻¹ s⁻¹
